Tests used:
Assay in all cases: cell-based or functional assay
[1] = molecular target: T1, human IL-18 binding protein (human, UniProt O95998 31-194)
T1 sequence (looked up): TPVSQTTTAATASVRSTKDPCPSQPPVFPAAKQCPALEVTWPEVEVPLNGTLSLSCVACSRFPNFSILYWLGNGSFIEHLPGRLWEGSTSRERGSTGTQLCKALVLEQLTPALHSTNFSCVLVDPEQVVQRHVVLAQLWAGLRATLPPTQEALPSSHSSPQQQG

[2] = molecular target: T2, IL-18 receptors on HEK-Blue IL-18 reporter cells (UniProt Q13478 19-541; O95256 20-599, limits assumed)
T2 sequence (looked up) 1: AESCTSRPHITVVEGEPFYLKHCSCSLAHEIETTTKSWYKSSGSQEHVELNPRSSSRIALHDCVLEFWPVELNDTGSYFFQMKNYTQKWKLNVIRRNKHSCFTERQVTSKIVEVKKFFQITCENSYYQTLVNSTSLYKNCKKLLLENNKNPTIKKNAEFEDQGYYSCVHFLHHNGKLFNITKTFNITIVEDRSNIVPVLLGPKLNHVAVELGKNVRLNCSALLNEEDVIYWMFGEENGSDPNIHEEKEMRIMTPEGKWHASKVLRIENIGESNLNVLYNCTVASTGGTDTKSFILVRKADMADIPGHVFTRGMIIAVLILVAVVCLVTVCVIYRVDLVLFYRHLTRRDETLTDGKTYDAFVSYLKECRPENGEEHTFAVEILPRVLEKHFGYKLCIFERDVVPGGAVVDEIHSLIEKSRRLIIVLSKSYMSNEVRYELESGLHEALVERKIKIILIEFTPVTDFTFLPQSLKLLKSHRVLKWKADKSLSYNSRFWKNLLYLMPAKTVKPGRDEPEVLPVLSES
T2 sequence (looked up) 2: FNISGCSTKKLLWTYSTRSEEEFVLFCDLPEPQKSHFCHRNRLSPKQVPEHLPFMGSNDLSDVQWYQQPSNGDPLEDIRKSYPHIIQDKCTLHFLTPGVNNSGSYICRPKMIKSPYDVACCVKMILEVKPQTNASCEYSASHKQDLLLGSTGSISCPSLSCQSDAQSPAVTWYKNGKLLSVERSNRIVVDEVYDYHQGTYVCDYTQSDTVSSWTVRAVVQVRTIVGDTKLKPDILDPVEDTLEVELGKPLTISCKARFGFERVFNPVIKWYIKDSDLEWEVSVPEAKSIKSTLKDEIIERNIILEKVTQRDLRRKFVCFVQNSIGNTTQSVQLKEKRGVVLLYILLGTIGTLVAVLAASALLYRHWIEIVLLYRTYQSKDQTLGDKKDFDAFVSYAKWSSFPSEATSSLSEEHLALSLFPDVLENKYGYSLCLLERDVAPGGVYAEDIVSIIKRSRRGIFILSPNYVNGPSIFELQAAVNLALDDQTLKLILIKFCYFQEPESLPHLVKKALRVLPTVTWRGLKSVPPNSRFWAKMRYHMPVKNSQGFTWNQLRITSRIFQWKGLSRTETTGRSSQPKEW

[3] = molecular target: T3, IL-18 receptor (IL-18Rα and IL-18Rβ) (UniProt Q13478 19-541; O95256 20-599, limits assumed)
T3 sequence (looked up) 1: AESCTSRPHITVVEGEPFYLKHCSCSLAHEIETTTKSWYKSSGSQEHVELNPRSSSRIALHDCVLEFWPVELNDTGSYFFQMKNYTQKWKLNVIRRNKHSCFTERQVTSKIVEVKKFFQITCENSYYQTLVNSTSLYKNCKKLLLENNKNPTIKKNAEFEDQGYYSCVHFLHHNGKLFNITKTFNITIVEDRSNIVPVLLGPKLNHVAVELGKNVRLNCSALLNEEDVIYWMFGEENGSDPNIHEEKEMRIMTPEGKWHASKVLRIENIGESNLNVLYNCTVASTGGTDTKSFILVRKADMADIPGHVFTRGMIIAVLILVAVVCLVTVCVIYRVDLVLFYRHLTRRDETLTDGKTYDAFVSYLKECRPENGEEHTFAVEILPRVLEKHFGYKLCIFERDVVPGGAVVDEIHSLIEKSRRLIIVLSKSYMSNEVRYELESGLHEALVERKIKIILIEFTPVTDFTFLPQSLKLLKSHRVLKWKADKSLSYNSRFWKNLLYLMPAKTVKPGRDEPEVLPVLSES
T3 sequence (looked up) 2: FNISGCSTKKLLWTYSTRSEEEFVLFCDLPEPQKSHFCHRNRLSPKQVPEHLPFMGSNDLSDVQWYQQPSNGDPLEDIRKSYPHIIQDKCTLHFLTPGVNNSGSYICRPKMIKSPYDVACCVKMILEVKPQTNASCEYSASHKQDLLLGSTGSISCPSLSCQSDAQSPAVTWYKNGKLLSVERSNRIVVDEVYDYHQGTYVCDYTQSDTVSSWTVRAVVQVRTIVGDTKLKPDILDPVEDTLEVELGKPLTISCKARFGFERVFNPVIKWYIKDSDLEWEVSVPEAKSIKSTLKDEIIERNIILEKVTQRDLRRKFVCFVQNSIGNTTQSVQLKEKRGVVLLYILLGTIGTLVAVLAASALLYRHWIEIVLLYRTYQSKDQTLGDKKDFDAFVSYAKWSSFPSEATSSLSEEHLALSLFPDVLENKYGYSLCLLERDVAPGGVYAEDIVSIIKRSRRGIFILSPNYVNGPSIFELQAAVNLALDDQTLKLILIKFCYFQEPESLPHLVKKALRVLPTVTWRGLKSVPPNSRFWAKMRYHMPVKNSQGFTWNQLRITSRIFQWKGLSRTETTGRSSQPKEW

B1: yeast display IL-18 variant K53Y, S55G (ligand)
chain: YFGKLESKLSVIRNLNDQVLFIDQGNRPLFEDMTDSDMRDNAPRTIFIISMYYDGQPRGMAVTISVKSEKISTLSSENKIISFKEMNPPDNIKDTKSDIIFFQRSVPGHDNKMQFESSSYEGYFLASEKERDLFKLILKKEDELGDRSIMFTVQNED
HEK-Blue activity, +100 nM BP, DF-10000 [1]: 0.21 | HEK-Blue activity, +100 nM BP, DF-100,000 [1]: 0.16 | HEK-Blue activity, +100 nM BP, DF-1,000,000 [1]: 0.13 | Ratio (-BP/+BP), DF-10000 [1]: 1.71 | Ratio (-BP/+BP), DF-100,000 [1]: 0.88 | Ratio (-BP/+BP), DF-1,000,000 [1]: 0.94 | HEK-Blue activity, No BP, DF-10000 [2]: 0.36 | HEK-Blue activity, No BP, DF-100,000 [2]: 0.14 | HEK-Blue activity, No BP, DF-1,000,000 [2]: 0.12

B2: hIL18 (G3T, E6K, K53A, M60K) - KiH (Fc fusion)
chain: YFTKLKSKLSVIRNLNDQVLFIDQGNRPLFEDMTDSDMRDNAPRTIFIISMYADSQPRGKAVTISVKSEKISTLSSENKIISFKEMNPPDNIKDTKSDIIFFQRSVPGHDNKMQFESSSYEGYFLASEKERDLFKLILKKEDELGDRSIMFTVQNED
EC50 (pM), PBMC IFN gamma assay, average [3]: 16 pM | EC50 (pM), PBMC IFN gamma assay, run 1 [3]: 13.3 pM | EC50 (pM), PBMC IFN gamma assay, run 2 [3]: 14 pM | EC50 (pM), PBMC IFN gamma assay, run 3 [3]: 20.7 pM | PBMC IFN gamma EC50 relative to WT-IL18, average [3]: 0.11 | PBMC IFN gamma EC50 relative to WT-IL18, run 1 [3]: 0.06 | PBMC IFN gamma EC50 relative to WT-IL18, run 2 [3]: 0.13 | PBMC IFN gamma EC50 relative to WT-IL18, run 3 [3]: 0.13

B3: yeast display IL-18 variant K53Q, D54N, S55M, Q56H (ligand)
chain: YFGKLESKLSVIRNLNDQVLFIDQGNRPLFEDMTDSDMRDNAPRTIFIISMYQNMHPRGMAVTISVKSEKISTLSSENKIISFKEMNPPDNIKDTKSDIIFFQRSVPGHDNKMQFESSSYEGYFLASEKERDLFKLILKKEDELGDRSIMFTVQNED
HEK-Blue activity, +100 nM BP, DF-10000 [1]: 0.21 | HEK-Blue activity, +100 nM BP, DF-100,000 [1]: 0.11 | HEK-Blue activity, +100 nM BP, DF-1,000,000 [1]: 0.09 | Ratio (-BP/+BP), DF-10000 [1]: 2.21 | Ratio (-BP/+BP), DF-100,000 [1]: 1.16 | Ratio (-BP/+BP), DF-1,000,000 [1]: 1.06 | HEK-Blue activity, No BP, DF-10000 [2]: 0.46 | HEK-Blue activity, No BP, DF-100,000 [2]: 0.13 | HEK-Blue activity, No BP, DF-1,000,000 [2]: 0.09

B4: hIL18 (G3V, E6K, K53S, M60K) - KiH (Fc fusion)
chain: YFVKLKSKLSVIRNLNDQVLFIDQGNRPLFEDMTDSDMRDNAPRTIFIISMYSDSQPRGKAVTISVKSEKISTLSSENKIISFKEMNPPDNIKDTKSDIIFFQRSVPGHDNKMQFESSSYEGYFLASEKERDLFKLILKKEDELGDRSIMFTVQNED
EC50 (pM), PBMC IFN gamma assay, average [3]: 16.8 pM | EC50 (pM), PBMC IFN gamma assay, run 1 [3]: 17.8 pM | EC50 (pM), PBMC IFN gamma assay, run 2 [3]: 21.6 pM | EC50 (pM), PBMC IFN gamma assay, run 3 [3]: 10.9 pM | PBMC IFN gamma EC50 relative to WT-IL18, average [3]: 0.12 | PBMC IFN gamma EC50 relative to WT-IL18, run 1 [3]: 0.07 | PBMC IFN gamma EC50 relative to WT-IL18, run 2 [3]: 0.21 | PBMC IFN gamma EC50 relative to WT-IL18, run 3 [3]: 0.07

B5: yeast display IL-18 variant K53S, S55F, R104K, H109Y (ligand)
chain: YFGKLESKLSVIRNLNDQVLFIDQGNRPLFEDMTDSDMRDNAPRTIFIISMYSDFQPRGMAVTISVKSEKISTLSSENKIISFKEMNPPDNIKDTKSDIIFFQKSVPGYDNKMQFESSSYEGYFLASEKERDLFKLILKKEDELGDRSIMFTVQNED
HEK-Blue activity, +100 nM BP, DF-10000 [1]: 0.14 | HEK-Blue activity, +100 nM BP, DF-100,000 [1]: 0.09 | HEK-Blue activity, +100 nM BP, DF-1,000,000 [1]: 0.09 | Ratio (-BP/+BP), DF-10000 [1]: 3.08 | Ratio (-BP/+BP), DF-100,000 [1]: 1.18 | Ratio (-BP/+BP), DF-1,000,000 [1]: 0.95 | HEK-Blue activity, No BP, DF-10000 [2]: 0.43 | HEK-Blue activity, No BP, DF-100,000 [2]: 0.11 | HEK-Blue activity, No BP, DF-1,000,000 [2]: 0.09

B6: yeast display IL-18 variant L5W, S7Y, K53H, S55M (ligand)
chain: YFGKWEYKLSVIRNLNDQVLFIDQGNRPLFEDMTDSDMRDNAPRTIFIISMYHDMQPRGMAVTISVKSEKISTLSSENKIISFKEMNPPDNIKDTKSDIIFFQRSVPGHDNKMQFESSSYEGYFLASEKERDLFKLILKKEDELGDRSIMFTVQNED
HEK-Blue activity, +100 nM BP, DF-10000 [1]: 0.12 | HEK-Blue activity, +100 nM BP, DF-100,000 [1]: 0.12 | HEK-Blue activity, +100 nM BP, DF-1,000,000 [1]: 0.13 | Ratio (-BP/+BP), DF-10000 [1]: 4.04 | Ratio (-BP/+BP), DF-100,000 [1]: 1.41 | Ratio (-BP/+BP), DF-1,000,000 [1]: 1.24 | HEK-Blue activity, No BP, DF-10000 [2]: 0.5 | HEK-Blue activity, No BP, DF-100,000 [2]: 0.16 | HEK-Blue activity, No BP, DF-1,000,000 [2]: 0.16
